Here are results for one protein from publication doi:10.1101/2020.05.26.116228, “Cataract-associated New Mutants S175G/H181Q of βB2-Crystallin and P24S/S31G of γD-Crystallin are Involved in Protein aggregation by Structural Changes” (bioRxiv, 2020).

The data set deals with the molecule itself. Description: SEC; Superdex 200 HR 10/30 in PBS (140 mM NaCl, 2.7 mM KCl, 10 mM Na2HPO4, pH 7.4), 0.5 mL/min; protein 2 mg/mL or 450 μg/100 μL (methods); markers albumin 66.4 kDa and α-lactalbumin 14.2 kDa; dimer in rapid equilibrium with monomer. In general terms: SEC sorts molecules by how far they enter the pores of the column.

B1: S175G/H181Q βB2-crystallin (natural protein, human)
chain: ASDHQTQAGKPQSLNPKIIIFEQENFQGHSHELNGPCPNLKETGVEKAGSVLVQAGPWVGYEQANCKGEQFVFEKGEYPRWDSWTSSRRTDSLSSLRPIKVDSQEHKIILYENPNFTGKKMEIIDDDVPSFHAHGYQEKVSSVRVQSGTWVGYQYPGYRGLQYLLEKGDYKDSGDFGAPQPQVQSVRRIRDMQWHQRGAFHPSN
notes: human βB2-crystallin with the double mutation found in nuclear cataract lenses, made by site-directed mutagenesis of pGEX-4t-1 CRBB2; also called S175G/H181Q mutant; CRBB2 S175G/H181Q; source: E. coli BL21 (DE3), purified (glutathione-agarose, cleaved from GST with thrombin)
For B1, the binding result was “binds”.
